The record followed here is the PETadex activity labels (doi:10.1002/anie.202203061).

Substrate in data set [1]: PET
The experiment in a line: Proxy for plastic degradation [Released monomer concentration (HPLC/LC-MS) (TPA)].

Substrate in data set [2]: PET
The data set can be described thus: Proxy for plastic degradation [Released monomer concentration (HPLC/LC-MS) (MHET)].

A short description of data set [3]: Melting temperature [DSF / Thermofluor]. The conditions noted are these: pH 7.5; part of the chain shown. In general terms: Differential scanning fluorimetry follows unfolding on heating by fluorescence.

B1: unnamed (protein)
chain: MNKSILEKIAVGTSALLFSVSAFSFTPSPTPDPDPEPQPCQGECDFTRGPAPSSSYLEASSGPYSVNTVNVSRSVSGFGGGTIHYPTNTTGTMGAIAIVPGFLAGESSIAWWGPRLASHGFVVITIATNSTFDQPASRETQLGRALDYVISQSNSNSSDISGMVDSTRVGAMGWSMGGGGALRIASGSRLSAAIPLAPWHTGSNDFDEIDTPTMIIACENDSTAPVRSHASPFYNSIPSTTDKALLEINNGSHSCANGGGSNGGLLGKYGVSWMKRFIDEDTRYSQFLCGPNHASNSAISEYRETCDY
Take B1: the “Proxy for plastic degradation” value worked out at 20 µM with PET [1] (30 °C); 20 µM with PET [1] (37 °C); 20 µM with PET [1] (45 °C); 20 µM in the data set with PET [1] (55 °C); 20 µM with PET [1] (65 °C); 3 µM with PET [2] (30 °C). The “Proxy for plastic degradation” value with PET [2] (37 °C) was found to be 2 µM; in the data set with PET [2] (45 °C), 2 µM; with PET [2] (55 °C), 1 µM; in the data set with PET [2] (65 °C), 1 µM.

B2: unnamed (protein)
chain: MNFPRASRLMQAAVLGGLMAVSAAATAQTNPYARGPNPTAASLEASAGPFTVRSFTVSRPSGYGAGTVYYPTNAGGTVGAIAIVPGYTARQSSIKWWGPRLASHGFVVITIDTNSTLDQPSSRSSQQMAALRQVASLNGTSSSPIYGKVDTARMGVMGWSMGGGGSLISAANNPSLKAAAPQAPWDSSTNFSSVTVPTLIFACENDSIAPVNSSALPIYDSMSRNAKQFLEINGGSHSCANSGNSNQALIGKKGVAWMKRFMDNDTRYSTFACENPNSTRVSDFRTANCS
On to B2, for which the Melting temperature in data set [3] was 42 °C. For the same protein, the “Proxy for plastic degradation” value with PET [1] (30 °C, part of the chain shown) is 30 µM; with PET [1] (37 °C, part of the chain shown) it was 25 µM; with PET [1] (45 °C, part of the chain shown), 20 µM; in the data set with PET [1] (55 °C, part of the chain shown), 20 µM; with PET [1] (65 °C, part of the chain shown), 10 µM; in the data set with PET [2] (30 °C, part of the chain shown) it was 3 µM. Moreover, the “Proxy for plastic degradation” value amounted to 2 µM with PET [2] (37 °C, part of the chain shown); 2 µM with PET [2] (45 °C, part of the chain shown); 1 µM with PET [2] (55 °C, part of the chain shown); 1 µM with PET [2] (65 °C, part of the chain shown).
